According to patent US20190292247A1:

Legend:
Assay in all cases: ELISA on immobilized antigen, streptavidin-HRP detection; value is the average over oligomer, monomer and fibril
[1] = target: amyloid beta 1-42 fibril (UniProt P05067)
[2] = target: amyloid beta 1-42 monomer (UniProt P05067)
[3] = target: amyloid beta 1-42 oligomer (UniProt P05067)
Sequence of amyloid beta 1-42 oligomer (P05067 672-713 limits assumed): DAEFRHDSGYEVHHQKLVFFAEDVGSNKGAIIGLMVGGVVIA

Sequence of amyloid beta 1-42 fibril (P05067 672-713 limits assumed): as above
Sequence of amyloid beta 1-42 monomer (P05067 672-713 limits assumed): as above

EC50 [1]: 0.031 µg/mL | EC50 [2]: 0.031 µg/mL | EC50 [3]: 0.031 µg/mL
Substance: 6E10 antibody (biotinylated)
